Experimental data from publication PMC4729596.

Target: VC-Vam7 (yeast) (UniProt P32912)
Experiment: split reporter

Sequence of UniProt P32912 (P32912 whole entry): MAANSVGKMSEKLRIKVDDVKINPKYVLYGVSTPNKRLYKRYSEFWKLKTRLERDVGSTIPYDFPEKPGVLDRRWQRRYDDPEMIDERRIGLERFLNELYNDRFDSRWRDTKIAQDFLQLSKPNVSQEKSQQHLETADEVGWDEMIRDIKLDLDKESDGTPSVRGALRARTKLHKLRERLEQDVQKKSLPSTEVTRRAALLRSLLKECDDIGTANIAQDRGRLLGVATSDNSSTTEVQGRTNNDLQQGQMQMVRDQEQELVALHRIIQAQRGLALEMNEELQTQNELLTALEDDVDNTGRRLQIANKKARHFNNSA

VN-Atg11 (from UniProt Q12527 1-1178) (natural protein)
percent of cells with a vYFP signal: > 90 % of cells
